Self-cleavage data for 39 variants are collected here from the RNAGym collection of RNA variant scans (doi:10.7554/elife.90254).

The labels stand for the following.
B1: LINE1-full (parent)
chain: UACGUAGGUGGUUUUCCCCUGAUAGUGCUAAGGGGGCCUGGAAGUUUGGACUGGGCAGAGCUCAACACAGCGUGGCAAAGUGGCUGUGGCUAGACUGCCUCUCUGGAUUCCUCGUCACUCAGCAGGGCAUCUCUGAGAGAAAUGCC

Variants of B1 are the subject of this data set. Description: self-cleavage, relative activity (ratio to wild type); higher = more cleavage; in vitro, sequencing; the parent is a self-cleaving ribozyme.
On to UACAUAGGUGGUUUUCCCCCGAUAGUGCUAAGGGGGCCUGGAAGUUUGGACUGGGCAGAGCUCAACACAGCGUGGCAAAGUGGCUGUGGCUAGACUGCCUCUCUGGAUUCCUCGUCACUCAGCAGGGCAUCUCUGAGAGAAAUGCC, for which the self-cleavage came out at 1.2. With UACAUAGGUGGUUUCCCCCUGAUAGUGCUAAGGGGGCCUGGAAGUUUGGACUGGGCAGAGCUCAACACAGCGUGGCAAAGUGGCUGUGGCUAGACUGCCUCUCUGGAUUCCUCGUCACUCAGCAGGGCAUCUCUGAGAGAAAUGCC the figure was 1.11; with UACAUAGGUGGUUUUCCCCUGAUAGUGCUAAGGGGGCCUGGAAGUUUGGACUGGGCAGAGCUCAACACAGCGUGGCAAAGUGGCUGUGGCUAGACUGCCUCUCUGGAUUCCUCGUAACUCAGCAGGGCAUCUCUGAGAGAAAUGCC, 1.22. For UACAUAGGUGGUUUUCCCCUGAUAGUGCUAAGGGGGCCUGGAAGUUUGGACUGGGCAGAGCUCAACACAGCGUGGCAAAGUGGCUGUGGCUGGACUGCCUCUCUGGAUUCCUCGUCACUCAGCAGGGCAUCUCUGAGAGAAAUGCC, the self-cleavage is 0. UAUGUAGGUGGUUUUCCCCUGAUAGUGCUAAGGGGGCCUGGAAGUUUGGACUGGGCAGAGCUCAACACAGCGUGGCAAAGUGGCUGUGGCUAGACUGCCUCUCUGGAUUCCUCGUCACGCAGCAGGGCAUCUCUGAGAGAAAUGCC: the self-cleavage came to 0.98.

Take UAUGUAGGUGGUUUUCCCCUGAUAGUGCUAAGGGGGCCUGGAAGUUUGGACUGGGCAGAGCUCAACACAGCGUGGCAAAGUGGCUGUGGCUAGACUGCCUCUCUGGAUUCCUCGUCACACAGCAGGGCAUCUCUGAGAGAAAUGCC: the self-cleavage came out at 0.83. In the case of UACAUAGGUGGUUUUCCCCUGAUAGCGCUAAGGGGGCCUGGAAGUUUGGACUGGGCAGAGCUCAACACAGCGUGGCAAAGUGGCUGUGGCUAGACUGCCUCUCUGGAUUCCUCGUCACUCAGCAGGGCAUCUCUGAGAGAAAUGCC, the self-cleavage worked out at 0.61. For UAUGUAGGUGGUUUUCCCCUGAUAGUGCUAAGGGGGCCUGGAAGUUUGGACUGGGCAGAGCUCAACACAGCGUGGCAAAGUGGCUGUGGCUAGACUGCCUCUCUGGAUUCCUCGUCACUCAGCAGGGCAUCCCUGAGAGAAAUGCC, the self-cleavage came out at 1.1. For the variant UACAUAGGUGGUUUUCCCCUGAUAGUGCUAAGGGGGCCUGGAAGUUUGGACUGGGCAGAGCUCAACACAGCGUGGCAAAGUGGCUGUGGCUAGACUGCCUCUCUGGAUUCCUCGUCACUCAGCAAGGCAUCUCUGAGAGAAAUGCC, the self-cleavage was 0.86. With UAUGUAGGUGGUUUUCCCCUGAUAGUGCUAAGGGGGCCUGGAAGUUUGGACUGGGCAGAGCUCAACACAGCGUGGCAAAGUGGCUGUGGCUAGACUGCCUCUCUGGAUUCCUCGUCACUCAGCAGGGCAUCUCUGAGAGAAACGCC the figure was 0.62; with UACAUAGGUGGUUUUCCCCUGAUAGUGCUAGGGGGGCCUGGAAGUUUGGACUGGGCAGAGCUCAACACAGCGUGGCAAAGUGGCUGUGGCUAGACUGCCUCUCUGGAUUCCUCGUCACUCAGCAGGGCAUCUCUGAGAGAAAUGCC, 0.6; with UACAUAGGUGGCUUUCCCCUGAUAGUGCUAAGGGGGCCUGGAAGUUUGGACUGGGCAGAGCUCAACACAGCGUGGCAAAGUGGCUGUGGCUAGACUGCCUCUCUGGAUUCCUCGUCACUCAGCAGGGCAUCUCUGAGAGAAAUGCC, 0.77. In the case of UACAUAGGUGGUUUUCCCCUGAUAGUGCUAAGGGGGCCUGGAAGUUUGGACUGGGCAGAGCUCUACACAGCGUGGCAAAGUGGCUGUGGCUAGACUGCCUCUCUGGAUUCCUCGUCACUCAGCAGGGCAUCUCUGAGAGAAAUGCC it was 0.72; in that of UACAUAGGUGGUUUUCCCCUGAUAGUGCUAAGGGGGCCUGGAAGUUUGGACUGGGCAGAGCUCAACACAGCGUGGCAAAGUGGCUGUGGCUAGACUGCCUCUCUGGGUUCCUCGUCACUCAGCAGGGCAUCUCUGAGAGAAAUGCC, 1.6; in that of UACAUAGGUGGUUUUCCCCUGAUAGUGCUAAGGGGGCCUGGAAGUUUGGACUGGGCAGAGCUCAACACAUCGUGGCAAAGUGGCUGUGGCUAGACUGCCUCUCUGGAUUCCUCGUCACUCAGCAGGGCAUCUCUGAGAGAAAUGCC, 0.11.

Take UAUGUAGGUGGUUUUCCCCUGAUAGUGCUAAGGGGGCCUGGAAGUUUGGACUGGGCAGAGCUCAACACAGCGUGGCAAAGUGGCUGUGGCUAGACUGCCUCUCUGGAUUCCUCGUCACUCAGCAGGGCACCUCUGAGAGAAAUGCC: the self-cleavage was found to be 0.31. In the case of UACAUAGGUGGUUUUCCCCUGAUAGUGCUAAGGAGGCCUGGAAGUUUGGACUGGGCAGAGCUCAACACAGCGUGGCAAAGUGGCUGUGGCUAGACUGCCUCUCUGGAUUCCUCGUCACUCAGCAGGGCAUCUCUGAGAGAAAUGCC it was 0.66; in that of UACAUAGGUGGUUUUCCCCUGAUAGUGCUAAGGGGGCCUGGAAGUUUGGACUGGGCAGGGCUCAACACAGCGUGGCAAAGUGGCUGUGGCUAGACUGCCUCUCUGGAUUCCUCGUCACUCAGCAGGGCAUCUCUGAGAGAAAUGCC, 0.12. For UACAUAGGUGGUUUUCCCCUGAUAGUGCUAAGGGGGCCUGGAAGUUUGGACUGGGCAGAGCUCAACACAGCGUGGCAAAGUGGCUGUGGCUAGACUGCCUCUCUGGAUUCCUCGUCACUCAGCAGGGCAUCUCUGAGAGAAAUGCC, the self-cleavage was 0.89. Turning to UACAUAGGUGGUUUUCCCCUGAUAGUGCUAAGGGGGCCUGGAAGUUUGGACUGGGCAGAGCUCAACACAGCGUGGCAAAGUGGCUGUGGCUAAACUGCCUCUCUGGAUUCCUCGUCACUCAGCAGGGCAUCUCUGAGAGAAAUGCC, the self-cleavage stood at 0.03. Take UAUGUAGGUGGUUUUCCCCUGAUAGUGCUAAGGGGGCCUGGAAGUUUGGACUGGGCAGAGCUCAACACAGCGUGGCAAAGUGGCUGUGGCUAGACUGCCUCUCUGGAUUCCACGUCACUCAGCAGGGCAUCUCUGAGAGAAAUGCC: the self-cleavage came out at 1.38. With UACAUAGGUGGUUUUCCCCUGAUAGUGCUAAGGGGGCCUGGAAGUUUGGACUGGGCAGAGCUCAACACAGCGUGGCAAAGUGGCUGUGGCUAGGCUGCCUCUCUGGAUUCCUCGUCACUCAGCAGGGCAUCUCUGAGAGAAAUGCC the figure was 0.21; with UACAUAGGUGGUUUUCCCCUGAUAGUGCUAAGGGGGCCUGGAAGUUUGGACUGGGCAGAGCUCAACACAGCGUGACAAAGUGGCUGUGGCUAGACUGCCUCUCUGGAUUCCUCGUCACUCAGCAGGGCAUCUCUGAGAGAAAUGCC, 0.87; with UACAUAGGUGGUUUUCCCCUGAUAGUGCUAAGGGGGCCUGGAAGUUUGGACUGGGCAGAGCUCAACACAGCGUGGCAAAGUGGCUGUGGCUAGACUGCCUCUCUGGAUUCCUCGUCACUCAGCAGGGCAUCUCUGUGAGAAAUGCC, 1.51. Turning to UACAUAGGUGGUUUUCACCUGAUAGUGCUAAGGGGGCCUGGAAGUUUGGACUGGGCAGAGCUCAACACAGCGUGGCAAAGUGGCUGUGGCUAGACUGCCUCUCUGGAUUCCUCGUCACUCAGCAGGGCAUCUCUGAGAGAAAUGCC, the self-cleavage was 0.92.

Regarding UACAUAGGCGGUUUUCCCCUGAUAGUGCUAAGGGGGCCUGGAAGUUUGGACUGGGCAGAGCUCAACACAGCGUGGCAAAGUGGCUGUGGCUAGACUGCCUCUCUGGAUUCCUCGUCACUCAGCAGGGCAUCUCUGAGAGAAAUGCC, the self-cleavage came to 0.69. On to UACAUAGGUGGUUUUCCCCUGAUAGUGCUAAGGGGGCCUGGAAGUUUGGACUGGGCAGAGCUCAACACAGCGUGGCAAAGUGGCUGUGGCUAGACUGCCUCUCUGGAUUCCUCGUCACUCAGCAGGGCAUCUCUGAGAGAAAUGUC, for which the self-cleavage turned out to be 1.11. For UACAUAGGUGGUUUUCCCCUGAUAGUGCUAAGGGGGCCUGGAAGUUUGGACUGGGCAGAGCUCAACACAGCGUGGCAAAGUGGCUGUGGCUAGACUGCCUCUCUGGAUUCCUCGUCACUCAGCAGGACAUCUCUGAGAGAAAUGCC, the self-cleavage amounted to 1.67. UACAUAGGUGGUUUUCCCCUGAUAGUGCUAAGGGGGCCUGGAAGUUUGGACUGGGCAGAGCUCAACGCAGCGUGGCAAAGUGGCUGUGGCUAGACUGCCUCUCUGGAUUCCUCGUCACUCAGCAGGGCAUCUCUGAGAGAAAUGCC: the self-cleavage amounted to 0.62. Regarding UACAUAGGUGGUCUUCCCCUGAUAGUGCUAAGGGGGCCUGGAAGUUUGGACUGGGCAGAGCUCAACACAGCGUGGCAAAGUGGCUGUGGCUAGACUGCCUCUCUGGAUUCCUCGUCACUCAGCAGGGCAUCUCUGAGAGAAAUGCC, the self-cleavage worked out at 1.12. In the case of UACAUAGGUGGUUUUCCCCUGAUAGUGCUAAGGGGGCCAGGAAGUUUGGACUGGGCAGAGCUCAACACAGCGUGGCAAAGUGGCUGUGGCUAGACUGCCUCUCUGGAUUCCUCGUCACUCAGCAGGGCAUCUCUGAGAGAAAUGCC, the self-cleavage stood at 0.54. For the variant UACAUAGGUGGUUUUCCCCUGAUUGUGCUAAGGGGGCCUGGAAGUUUGGACUGGGCAGAGCUCAACACAGCGUGGCAAAGUGGCUGUGGCUAGACUGCCUCUCUGGAUUCCUCGUCACUCAGCAGGGCAUCUCUGAGAGAAAUGCC, the self-cleavage amounted to 1.8.

Consider UACAUAGGUAGUUUUCCCCUGAUAGUGCUAAGGGGGCCUGGAAGUUUGGACUGGGCAGAGCUCAACACAGCGUGGCAAAGUGGCUGUGGCUAGACUGCCUCUCUGGAUUCCUCGUCACUCAGCAGGGCAUCUCUGAGAGAAAUGCC, for which the self-cleavage turned out to be 1.21. With UACAUAGGUGGUUUUCCCCUGAUAGUGCUGAGGGGGCCUGGAAGUUUGGACUGGGCAGAGCUCAACACAGCGUGGCAAAGUGGCUGUGGCUAGACUGCCUCUCUGGAUUCCUCGUCACUCAGCAGGGCAUCUCUGAGAGAAAUGCC the figure was 0.59; with UACAUAGGUGGUUUUCCCUUGAUAGUGCUAAGGGGGCCUGGAAGUUUGGACUGGGCAGAGCUCAACACAGCGUGGCAAAGUGGCUGUGGCUAGACUGCCUCUCUGGAUUCCUCGUCACUCAGCAGGGCAUCUCUGAGAGAAAUGCC, 0.59; with UACAUAGGUGGUUUUCCCCUGAUAGUGCUAAGGGGGCCUGGAUGUUUGGACUGGGCAGAGCUCAACACAGCGUGGCAAAGUGGCUGUGGCUAGACUGCCUCUCUGGAUUCCUCGUCACUCAGCAGGGCAUCUCUGAGAGAAAUGCC, 1.21. As for UACAUAGGUGGUUUUCCCCUGAUAGUGCUAAGGGGGCCUGGAAGUUUGGACUGGGCAGAGCUCAACACAGCGUGGCAAAGUGGCUGUGGCUAGACUGCCUCUCUGGAUUCCUCGUCACUCGGCAGGGCAUCUCUGAGAGAAAUGCC, the self-cleavage was determined as 1.78.

With UACAUAGGUGGUUUUCCCCUGAUAGUGCUAAGGGGGCCUGGUAGUUUGGACUGGGCAGAGCUCAACACAGCGUGGCAAAGUGGCUGUGGCUAGACUGCCUCUCUGGAUUCCUCGUCACUCAGCAGGGCAUCUCUGAGAGAAAUGCC, the self-cleavage was determined as 0.78. As to UAUGUAGGUGGUUUUCCCCUGAUAGUGCUAAGGGGGCCUGGAAGUUUGGACUGGGCAGAGCUCAACACAGCGUGGCAAAGUGGCUGUGGCUAGACUGCCUCUCCGGAUUCCUCGUCACUCAGCAGGGCAUCUCUGAGAGAAAUGCC, the self-cleavage was determined as 1.53.
